Experimental data: the Immune Epitope Database (IEDB)

Legend:
[1] = target: HLA-A*02:03; test: IEDB peptide-MHC binding, purified MHC/direct/fluorescence; filed as Kd, often an IC50 or EC50 that approximates it; ≥ and ≤ were set here for values at or beyond the usual limits of such assays
[2] = target: HLA-A*02:11; test: as above
[3] = target: HLA-A*02:12; test: as above
[4] = target: HLA-A*02:16; test: as above
[5] = target: HLA-A*02:19; test: as above
[6] = target: HLA-A*03:01; test: as above
[7] = target: HLA-A*26:01; test: as above; settings: source organism: Orthohantavirus andesense
[8] = target: HLA-A*68:02; test: as above
[9] = target: HLA-B*15:01; test: as above; settings: source organism: Orthohantavirus andesense
[10] = target: HLA-A*02:01; test: IEDB peptide-MHC binding, purified MHC/competitive/fluorescence; filed as Kd, often an IC50 or EC50 that approximates it; ≥ and ≤ were set here for values at or beyond the usual limits of such assays
[11] = target: HLA-A*69:01; test: as above
[12] = target: HLA-B*18:01; test: as above
[13] = target: HLA-B*27:03; test: as above
[14] = target: HLA-B*39:01; test: as above
[15] = target: HLA-B*46:01; test: as above
[16] = target: HLA-B*51:01; test: as above
[17] = target: HLA-B*57:01; test: as above
[18] = target: HLA-A*02:01; test: IEDB peptide-MHC binding, purified MHC/direct/fluorescence; filed as Kd, often an IC50 or EC50 that approximates it; ≥ and ≤ were set here for values at or beyond the usual limits of such assays; settings: source organism: Sudan ebolavirus - Maleo (1979)
[19] = target: HLA-A*23:01; test: as above
[20] = target: HLA-A*24:03; test: as above
[21] = target: HLA-A*29:02; test: as above; settings: source organism: Zaire ebolavirus
[22] = target: HLA-A*26:01; test: IEDB peptide-MHC binding, purified MHC/competitive/fluorescence; filed as Kd, often an IC50 or EC50 that approximates it; ≥ and ≤ were set here for values at or beyond the usual limits of such assays
[23] = target: HLA-B*15:01; test: as above
[24] = target: HLA-B*15:17; test: as above
[25] = target: HLA-B*07:02; test: IEDB peptide-MHC binding, purified MHC/competitive/fluorescence; ≥ and ≤ were set here for values at or beyond the usual limits of such assays
[26] = target: HLA-A*03:01; test: as above
[27] = target: HLA-A*11:01; test: as above
[28] = target: HLA-B*15:01; test: as above; settings: source organism: Zaire ebolavirus
[29] = target: HLA-A*02:01; test: as above; settings: source organism: Zaire ebolavirus
[30] = target: HLA-A*24:02; test: as above; settings: source organism: Zaire ebolavirus
[31] = target: HLA-A*01:01; test: IEDB peptide-MHC binding, purified MHC/direct/fluorescence; filed as Kd, often an IC50 or EC50 that approximates it; ≥ and ≤ were set here for values at or beyond the usual limits of such assays; settings: source organism: Reston ebolavirus - Reston
[32] = source organism: Pergamino virus
[33] = source organism: Lechiguanas virus
[34] = source organism: Zaire ebolavirus
[35] = source organism: Reston ebolavirus
[36] = source organism: Vaccinia virus

SCINGQCPY
Kd [1, 32]: ≥ 20 µM | Kd [2, 32]: ≥ 20 µM | Kd [3, 32]: ≥ 20 µM | Kd [4, 32]: ≥ 20 µM | Kd [5, 32]: ≥ 20 µM | Kd [6, 32]: ≥ 20 µM | Kd [7]: 2.22 µM | Kd [8, 32]: ≥ 20 µM | Kd [9]: 6 µM | Kd [10, 33]: ≥ 20 µM | Kd [11, 33]: ≥ 20 µM | Kd [12, 33]: ≥ 20 µM | Kd [13, 33]: ≥ 20 µM | Kd [14, 33]: ≥ 20 µM | Kd [15, 33]: ≥ 20 µM | Kd [16, 33]: ≥ 20 µM | Kd [17, 33]: ≥ 20 µM

SMHYKLDEV
Kd [18]: 0.0151 µM | Kd [6, 34]: ≥ 20 µM | Kd [19, 34]: ≥ 20 µM | Kd [20, 34]: ≥ 20 µM | Kd [21]: ≥ 20 µM | Kd [22, 34]: ≥ 20 µM | Kd [11, 34]: ≥ 20 µM | Kd [23, 34]: ≥ 20 µM | Kd [24, 34]: ≥ 20 µM | Kd [12, 34]: ≥ 20 µM | Kd [13, 34]: ≥ 20 µM | Kd [14, 34]: ≥ 20 µM | Kd [15, 34]: ≥ 20 µM | Kd [16, 34]: ≥ 20 µM | Kd [17, 34]: ≥ 20 µM

TGFGTNETE
IC50 [25, 34]: ≥ 221 µM

TLRKERLAK
IC50 [26, 34]: 0.509 µM | IC50 [27, 34]: 4.25 µM | IC50 [25, 34]: ≥ 119 µM | IC50 [28]: ≥ 171 µM

TPSATTAAG
IC50 [25, 34]: ≥ 144 µM

TSPRMLTPI
IC50 [29]: ≥ 684 µM | IC50 [30]: 3.05 µM | IC50 [25, 34]: ≥ 260 µM

TTDDSTSYY
Kd [31]: 0.0122 µM | Kd [1, 35]: ≥ 20 µM | Kd [2, 35]: ≥ 20 µM | Kd [3, 35]: ≥ 20 µM | Kd [4, 35]: ≥ 20 µM | Kd [5, 35]: ≥ 20 µM | Kd [6, 35]: ≥ 20 µM | Kd [19, 35]: ≥ 20 µM | Kd [20, 35]: ≥ 20 µM | Kd [8, 35]: ≥ 20 µM | Kd [10, 35]: ≥ 20 µM | Kd [22, 35]: ≥ 20 µM | Kd [11, 35]: ≥ 20 µM | Kd [23, 35]: ≥ 20 µM | Kd [24, 35]: ≥ 20 µM | Kd [12, 35]: ≥ 20 µM | Kd [13, 35]: ≥ 20 µM | Kd [14, 35]: ≥ 20 µM | Kd [15, 35]: ≥ 20 µM | Kd [16, 35]: ≥ 20 µM | Kd [17, 35]: ≥ 20 µM

YIKNIGNTK
IC50 [26, 36]: 6.51 µM | IC50 [27, 36]: 30.5 µM | IC50 [25, 36]: ≥ 745 µM
